Assay results reported in PMC9881146.

Tests used:
[1] = biological target: Cdc13 OB1 domain (Strep-TEV-Strep-OB1, residues 1-176) (C. glabrata); assay: AUC
[2] = biological target: Cdc13 OB1 domain without its C-terminal tail (OB1 ΔC-ter) (C. glabrata); assay: AUC
[3] = biological target: Cdc13 OB2 domain (Strep-TEV-Strep-OB2, residues 260-396) (C. glabrata); assay: SEC
[4] = biological target: Cdc13_(OB23) (H10-TEV-Cdc13_(OB23)) (C. glabrata); assay: SEC
[5] = biological target: Cdc13_(OB23) (H10-TEV-Cdc13_(OB23)) (C. glabrata); assay: mass photometry
[6] = biological target: Cdc13_(OB23) (H10-TEV-Cdc13_(OB23)) (C. glabrata); assay: AUC
[7] = biological target: Cdc13_(OB24) (H10-TEV-Cdc13_(OB24)) (C. glabrata); assay: SEC
[8] = biological target: Cdc13_(OB24) (H10-TEV-Cdc13_(OB24)) (C. glabrata); assay: mass photometry
[9] = biological target: Cdc13_(OB24) (H10-TEV-Cdc13_(OB24)) (C. glabrata); assay: AUC
[10] = biological target: Cdc13_(OB234), purified, large tag removed (C. glabrata); assay: AUC
[11] = biological target: OB1 ΔC-ter A40W (C. glabrata); assay: AUC
[12] = biological target: OB1 ΔC-ter A40W D94A (C. glabrata); assay: AUC
[13] = biological target: OB1 ΔC-ter Q39A (C. glabrata); assay: AUC
[14] = biological target: OB1 ΔC-ter Q39A A40W (C. glabrata); assay: AUC
OB3 = biological target: T1, OB3 (Candida glabrata, UniProt Q6FT40 401-593); assay: EMSA
T1 sequence: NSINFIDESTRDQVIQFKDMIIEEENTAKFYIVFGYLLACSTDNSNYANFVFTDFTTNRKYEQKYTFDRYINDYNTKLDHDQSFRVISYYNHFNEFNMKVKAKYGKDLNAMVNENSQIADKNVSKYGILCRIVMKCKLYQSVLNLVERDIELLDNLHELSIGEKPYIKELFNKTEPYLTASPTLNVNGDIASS

Cdc13OB34 = biological target: T2, Cdc13OB34 (Candida glabrata, UniProt Q6FT40 401-753); assay: fluorescence polarization
T2 sequence: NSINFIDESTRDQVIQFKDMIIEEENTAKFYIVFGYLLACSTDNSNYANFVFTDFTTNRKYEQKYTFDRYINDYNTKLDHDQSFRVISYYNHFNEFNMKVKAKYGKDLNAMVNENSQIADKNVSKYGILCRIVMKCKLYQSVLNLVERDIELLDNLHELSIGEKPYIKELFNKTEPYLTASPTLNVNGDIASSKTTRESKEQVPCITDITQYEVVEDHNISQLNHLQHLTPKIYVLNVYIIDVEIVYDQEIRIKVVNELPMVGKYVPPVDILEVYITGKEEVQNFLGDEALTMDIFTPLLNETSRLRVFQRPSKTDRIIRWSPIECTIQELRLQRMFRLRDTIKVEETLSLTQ

Cdc13OB234 = biological target: T3, Cdc13OB234 (Candida glabrata, UniProt Q6FT40 260-753); assay: fluorescence polarization
T3 sequence: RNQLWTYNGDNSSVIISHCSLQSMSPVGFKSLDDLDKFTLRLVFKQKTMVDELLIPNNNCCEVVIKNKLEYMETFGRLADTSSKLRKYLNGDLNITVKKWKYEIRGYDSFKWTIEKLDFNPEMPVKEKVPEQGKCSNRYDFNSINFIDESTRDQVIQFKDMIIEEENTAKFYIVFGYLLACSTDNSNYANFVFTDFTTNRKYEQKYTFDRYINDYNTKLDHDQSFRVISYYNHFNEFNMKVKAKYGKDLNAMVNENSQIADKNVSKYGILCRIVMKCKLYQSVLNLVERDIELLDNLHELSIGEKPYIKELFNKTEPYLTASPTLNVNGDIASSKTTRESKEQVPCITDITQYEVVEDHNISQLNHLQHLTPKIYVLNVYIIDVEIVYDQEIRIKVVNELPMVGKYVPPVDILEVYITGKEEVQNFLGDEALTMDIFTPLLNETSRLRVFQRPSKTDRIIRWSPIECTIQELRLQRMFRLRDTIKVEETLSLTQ

Cdc13OB23 = biological target: T4, Cdc13OB23 (Candida glabrata, UniProt Q6FT40 260-593); assay: fluorescence polarization
T4 sequence: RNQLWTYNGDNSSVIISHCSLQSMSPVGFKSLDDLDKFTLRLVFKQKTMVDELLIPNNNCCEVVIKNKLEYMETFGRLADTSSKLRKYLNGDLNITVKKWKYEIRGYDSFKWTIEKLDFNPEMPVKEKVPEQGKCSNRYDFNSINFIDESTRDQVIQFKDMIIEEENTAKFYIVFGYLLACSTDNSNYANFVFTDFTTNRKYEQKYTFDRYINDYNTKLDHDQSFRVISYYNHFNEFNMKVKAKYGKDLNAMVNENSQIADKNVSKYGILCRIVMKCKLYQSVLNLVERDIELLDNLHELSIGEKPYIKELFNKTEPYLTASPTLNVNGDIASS

In the case of “Cdc13 OB1 domain (Strep-TEV-Strep-OB1, residues 1-176) (domain or fragment)”, the relative abundance of species 1 (monomer) [1] is reported as 72%, the relative abundance of species 2 [1] is reported as 4% and the relative abundance of species 3 [1] is reported as 3%. It also gave a relative abundance of species 4 [1] of 4.5% and a relative abundance of species 5 [1] of 2%.

“Cdc13 OB1 domain without its C-terminal tail (OB1 ΔC-ter) (domain or fragment)” showed a relative abundance of species 1 [2] of 95%, a relative abundance of species 2 [2] of 4% and a relative abundance of species 3 [2] of 1%.

“Cdc13 OB2 domain (Strep-TEV-Strep-OB2, residues 260-396) (domain or fragment)” was tested, and the stoichiometry N [3] was 2.

Molecule “Cdc13_(OB23) (H10-TEV-Cdc13_(OB23)) (domain or fragment)” has a stoichiometry N [4] of 2, a stoichiometry N [5] of 2 and a stoichiometry N [6] of 2.

“Cdc13_(OB24) (H10-TEV-Cdc13_(OB24)) (domain or fragment)” was tested, and the stoichiometry N [7] was 2, the stoichiometry N [8] was 2 and the stoichiometry N [9] was 2.

“Cdc13_(OB234), purified, large tag removed (domain or fragment)” gave a stoichiometry N [10] of 2.

OB1 ΔC-ter A40W (domain or fragment) gave a relative abundance of species 1 [11] of 97.9% and a relative abundance of species 2 [11] of 2.1%.

Molecule “OB1 ΔC-ter A40W D94A (domain or fragment)” has a relative abundance of species 1 [12] of 97% and a relative abundance of species 2 [12] of 3%.

OB1 ΔC-ter Q39A (domain or fragment) was tested, and the relative abundance of species 1 [13] was 95.8%, the relative abundance of species 2 [13] was 3.1% and the relative abundance of species 3 [13] was 1.1%.

In the case of “OB1 ΔC-ter Q39A A40W (domain or fragment)”, the relative abundance of species 1 [14] is reported as 97.8% and the relative abundance of species 2 [14] is reported as 2.2%.

TTTTTTTTTTTTTTTTTTTTTTTTTTTTTTTTTTTTTTTTTTTTTTTT (ssDNA) [polyT]: no binding (OB3).

Molecule TGTGGGGTCTGGGTGCTGTGGGGTCTGGGTGCTGTGGGGTCTGGGTGC (ssDNA) [6FAM-CgTelo] has a Kd (Cdc13OB34) of 299 ± 41 nM, a Kd (Cdc13OB234) of 13.5 ± 1.7 nM and a Kd (Cdc13OB23) of 28.5 ± 3.8 nM.
